{"source": "the DeepSol protein solubility set"}
{"assay": "soluble on expression in E. coli; label from the status in PepcDB or PDB records"}
{"sequence": "MSLKRVMTLADIALLANVSKSTASRALRNNPLINKNTRELVQEIALKHNFKVNATASNLRTQKTNTIAVVVMFDQKSGQAISDPFLMEILGTIADELTHFGYDMLLTTTKTATHDWYSYYYESKRADGLIIIGQGEHDQRIEALISTDLPFIVWGTEIHEKNYTTVGSDNRKGGYLAVSHLIEQGCQRIAFLGDINHTEVEQRWLGYQDAVAEAGLVVEDKLQIKTDFTSVDGYQSLRDHCLNDDVPIDGVFAVSDAIALGATKYLFEQNITIPKQVAVIGFDDISMSEYCSPSLSTIRQNTAAGGRLLVKLMLDKLNHLPVDSQLLNVEMIQRQSSEGHHHHHH", "soluble on expression in E. coli": "soluble"}
{"sequence": "MSLKSSTEKKLAAARGTAELIVEDAKKEAETTKKEALLEAKEENHRLRTEIENELRGRRTETQKAENRLLQREENLDRKDTSLSKREATLERKEESISKRQQQIEEKESKLAEMIQAEQTELERISALSKEEAKSIILNQVEEELTHDTAIMVKESENRAKEESDKKAKNILSLAIQRCAADHVAETTVSVVTLPNDEMKGRIIGREGRNIRTLETLTGIDLIIDDTPEAVILSGFDPIRREIARIALEKLVQDGRIHPARIEEMVDKARKEVDEHIREVGEQATFEVGIHSIHPDLIKILGRLRYRTSYGQNVLNHSLEVSKLAGILAGELGEDVTLAKRAGLLHDIGKAIDHEIEGSHVEIGVELATKYKENDVVINSIASHHGDTEATSVIAVLVAAADALSAARPGARSETLENYIRRLEKLEEISESYDGVEKSYAIQAGREVRIIVEPDTIDDLSSYRLARDIRKRIEEELDYPGHIKVTVIRETRAVEYAKEGHHHHHH", "soluble on expression in E. coli": "not soluble"}
{"sequence": "MSLKTLNIYLMRHGKVDAAPGLHGQTDLKVKEAEQQRIAMAWKTKGYDVAGIISSPLSRCHDLAQILAEQQLLPMTTEDDLQEMDFGDFDGMPFDLLTEHWKKLDAFWQSPAHHSLPNAESLSTFSQRVSRAWSQIINDINDNLLIVTHGGVIRIILAHVLGVDWRNPQWYSTLAIGNASVTHITITIDDQIYASVRSIGVPLVEEGHHHHHH", "soluble on expression in E. coli": "soluble"}
{"sequence": "MSLKTMKFILACVLLLSPLLCQAQKNLFNKYNDMKGVSSVYISKAMMELNPNLFMKDLYIGKVAEHLNSVQVLSTHDNKVREEMAKDIRSLVQSSKYELLMKQKSTVSGSEVYVNRKGSKVKELIMVMNGASSLKFVYMEGDMTTDDIKKLMLYQSTSQNEGHHHHHH", "soluble on expression in E. coli": "not soluble"}
{"sequence": "MSLKVLVTGGAGYVGTELVLKLAKDPSISKVVVFDNLSRENYNLFINSAQRIAKDKIQFEFGDLLDSRKIRKILADIDVVYHLAARVSTPFANADSHLYEQVNHWGTAELVYAIEEIKTVQKLIYVSSCSVYGSGKELIDENSVVNPKTIYGVSKMRGEEHVSRLGNKMNAVIIRLGNVYGYSSSMRFDAVINKFMFESHYKNRISIHGNGRQSRSFIHVDKAVDSLVKITSTDIPSGTYNLTERNLEIYDLIDQVKDLYPTLEFIFINQHLELREQKINPETKLLKYIPLQQTDFTAELAAFRDHFTFQTTSEGHHHHHH", "soluble on expression in E. coli": "soluble"}
{"sequence": "MSLLLIVAGHDPTGAGLRADIATAEALGVPAVSLPTLLSLQDEGVELVEPVDSRFMSDCLARYVPRCEVVKVGAVPTLKTFEILAKRLRDLTVVWDPVFRAEAGGELSEATPEEALETFGETVDILTPNTEELSQLVGREVRTTVEAELAARELVEEYGLTGVLVTGGHSVDRRDVWVPAEGNTIAWEVPPGEGAHGSGCVLSTALACFLVRGLDPETAVERAVRFARAAVREARNTPFGRVADPVAQIRRDATLGKATQHVIRALEIIESDPAFARAIPQVGMNVAEVFDPSRGLEGVVGLSGRIVLDGDRPTAVGRPVPGGSKHVGTVALTAHRLDPSVRAAVNARYDEELIERARDLGFVVSSFDRSEEPEEVDSTMEWGTEVAFRRADDTPDVVYDEGDVGKEPMIRVLGKSAVEAVTKLRMLLGCVVGEGHHHHHH", "soluble on expression in E. coli": "soluble"}
{"sequence": "MSLLRAIIVDNEEPATQILQMLLEKTGQIRVVGTFLRAADALSSLRLTKPDVAFLDIEIPDTSGLELANHILAMDSDVEIIFVTAYDHYALHAFRVNALDYLLKPLLPEDVERAVRRLIKRKGLAKDSAPESPLGANIHYFGKFSVYGPASKKPVKWRTSKAEELFAYLVQNLEKEVPKWRICEALWPEYHSEKVDIQLHTTVYKLKKVLTAANIPFDLSFSNGCYWLSLPQAAIDKVEFDAHIASSVPVNQSTIARCEHALSLYTGDYLEENGYLWSLALKAEYGQKFYKLASSVVNFYMTQGDWVRAEKILRSILERCPLDETVHEMLLTCYFTQKDRTAFITHYHTVRKLFQAELGLEPGKSIQTLYHSLLKRMDEGHHHHHH", "soluble on expression in E. coli": "soluble"}
{"sequence": "MSLLVIVKVQQAKNPLERAFFYAVSPEDYYEQAERLLKEGVIDEEGLKKARIEEYVLGARFNANFHSYALKDVFGNFDFVGFSDRRQVNLQGFLNLPAKDQLKINVPVKNEEIGHFGVTMRESKQQEVYEAAEKFIEACKAEFPPGIIGMFGLQGAMAYSPEDETKLEFVIFDVSFRVPGDPAIGPTSPEMRNLTLKHGVKIEDPLDLTMMEIKKAMELKRMEEIVTEGHHHHHH", "soluble on expression in E. coli": "soluble"}
{"sequence": "MSLMTDDIDQRLINALMADSRLSLKALAQVSGLSAPSVAERLRKLEERGVIRGYTLDVDPRCFGYQFQAIVRIRPLPGRLHEVERQIQDIAEFTECDKVTGDDCFIARLQVRSMEQLDTLLDRINGYAETNTAIVKKSPVKRRLPPMT", "soluble on expression in E. coli": "soluble"}
{"sequence": "MSLNAPKLVIGANGFLGSHVTRQLVADCAPQKGEVRAMVRPAANTRSIDDLPLTRFHGDVFDTATVAEAMAGCDDVYYCVVDTRAWLRDPSPLFRTNVAGLRNVLDVATDASLRRFVFTSSYATVGRRRGHVATEEDRVDTRKVTPYVRSRVAAEDLVLQYAHDAGLPAVAMCVSTTYGGGDWGRTPHGAFIAGAVFGRLPFTMRGIRLEAVGVDDAARALILAAERGRNGERYLISERMMPLQEVVRIAADEAGVPPPRWSISVPVLYALGALGSLRARLTGKDTELSLASVRMMRSEADVDHGKAVRELGWQPRPVEESIREAARFWAAMRTVGKDPAASEGHHHHHH", "soluble on expression in E. coli": "not soluble"}
{"sequence": "MSLNARSYLEQQLTGQNANAANALALAITQSQADKAMAETLINATFDQGYFHHIRWQGADGKVRVDRVNEAVFPAAPGWFRALLPLSPQPGSALVTAGWMQAGEIRVEAALGYAYESLWRGALQTMLWLLGTGLLAGLLGSIDIFKLRRDLQRVVNQARAISEHRFQRMTEPKVPELARVVGAMNQMVERLQSFLGEQSEEVEQLRRERHTDPVTGLPNREALEQAVSSTLAEEDDVRGCLLLLRLAGLAELNQRLGGERADALLVRLAADLEDLAARRKGWMAARLRGADFAVFCPELDMDGGRQLAETLCEQLALYRQMGLSDRDGIGHIGVCGIVQGDGLASLLARASQALAEAEAAGDNQWRVDDGAGPDVGSEWDWRELIEAACREHSEGHHHHHH", "soluble on expression in E. coli": "soluble"}
{"sequence": "MSLNCKQRRYMKILIVDDNEQYRKLLSAIFVDRGWEAIDAPEGNKGMELLREHIPDVILSDIMMPRMDGFQFLRALRTSAFGDIIFIFYTSTYTKASHRDFALSLGADAYIAKPLDPEDIVQALMDILDRKELREGHHHHHH", "soluble on expression in E. coli": "not soluble"}
{"sequence": "MSLNDLLTRRAVVAGMGVLGLGLLAGCSPARGLEFKYGKNMSNEILGRKFSLKDPQGNVRTLSSFYGSMPMVFFGFTQCPAVCPTTLARAAQIRKLLRGRDRDLFQVVFITLDPERDTPEVLDAYVKAFDPTFTALTGTPEEIAAVAKEFKVFYEKVPAGDTYTISHSSTSYVYDTRGTLRLSLGHSLNAKECAEDLVTLMEIEGHHHHHH", "soluble on expression in E. coli": "soluble"}
{"sequence": "MSLNELDCLETASIKIDPFTLELSRSLSTAVGDIEQRRGHVVCVDINGTVGIGEATPLPGWTERYPDCQDALRSVSTDSTSTSTSTSTSTSASEITPDTRSAAHHGIELACVDAMARHHDSSLARFLSTDTPATSIPVNATIGDCDSEQTYKKAESAVEDGYTTIKLKVGARDIESDCNRVIAARSAVGEDITLRVDANGAWNRTAAERFLETARTVDIAYIEQPLPASDLDGHALLRGRGVDIAVDESMNRTSPEQIFAADAADIIVCKPMALGGPKQTLAVARKAEAVDIDTVVTTTIDGVIARMGAVHIAAALPGSGSNARACGLATGSMLADDLTANPVSISDGEISVPTGPGLAGGALRSCCNREGHHHHHH", "soluble on expression in E. coli": "soluble"}
{"sequence": "MSLNEQAPVIAVLLTERTRRMMLDDAAIAQLNALGEVRWPTGAAIDATDVDQLLHGAVACLTGWGTPPFDPAARQRHPQLALVAHSAGSVRTLVPARLFDDGIRVTHAASKIAASVAEFVVAEALLAMRGIHRLHHQLRNGGEWLDVRAAVPQKLLGSRTVGIVGAGYVGRAVMRLLVPFGCRVLVVDPFLHDSEAAALGVFRAGLNDMLAQADMVSLHAPVLPETRRMIGARELALLRPGTLFINTARAELVDEAALLAEIRSGRIEAALDVFDNEPLPQDSPFRDPALANVTISPHAAGHTNEAHLAQGQAMVDEIGRLLRREPLQHEVSREGHHHHHH", "soluble on expression in E. coli": "not soluble"}
{"sequence": "MSLNFTALDFETANTHKTSICAVGMAIVEDGKVVKTISKLIKPVPDFYSYWNVQIHGITPDMTADAPYFIDVWQELKQYIDYSTLVAHNAAFDVGALRSILTTHEVSFPKTDYFCSCSVSRKVFKEIENHKLSTVCRHIDVPLNHHEAESDAIGAAQIIIKAGERLGANSIEELMAMLKMKLKVEGHHHHHH", "soluble on expression in E. coli": "not soluble"}
{"sequence": "MSLNKGSERTFNDLVEFIGEEMDFESGFYNDSYLDRRITARMRRTDTEDYQTYQRLLERDNGEREELLDSLSINVTSFFRNPEAWERLRPVLRELTENNRRVRLWSAPSADGREPYSAAMLALDDPEIDARRVEITATDINADILEEARKGTYATSQTTDIADELEPLDDYTKYIEQDGDTFQVRDQVKEMVTFEQHDLIRGDPKRDFDLVFCRNLLIYIDSEFKVPIFETIRGSLREGGYLMIGMTETLPAECRDSFEAVDKRHRIYRREGHHHHHH", "soluble on expression in E. coli": "not soluble"}
{"sequence": "MSLNKVWLTGLLTATASGVFSASTLAATEITWWHAMGGQLGEMVNQLATDFNASQSDYKLTPVYKGSYTETLTTGIAAFRAGQAPNILQVFDAGAATIMSSKGVAKPVQDLMIESGYPFTAQDYIAGVRNFYADNTGKMVGMPFNSSTPVLYYNKDMLASVNAQAPQTYEQLEQVAAKLAEKGQAGFAQSLAPWIMFENFKSRHNLPLSDKQNGYQDLSTKIMFNSDDMLMHVKKLKEWSDKGYYKYYGSDWDANQTPFERGEVAMWMGSSGSFGGLRNRVKFNLGTTYLPYWESVTKNPTHTFIGGAALFALQGHTPAQDKGVAAFFAYLTKPETQMNWHKTTGYVPVTNAAYDLTKQSGYYQENPDAEVGVKQLSLPDGEWTKGYRLGYYPQVREVMHREFDNIFSGRSTVESSLNKVEDESAKLLNRFARTVQEGGSHHHHHH", "soluble on expression in E. coli": "soluble"}
{"sequence": "MSLNLPFRAMVSDLDGTLLTPEHLVGDLTIDTLRALEQKGVDIILATGRNHTDVSSILGKIGAERAVMITSNGARVRDLQGNLLYSNSLPEELVLELYKTPFDTSKVCMNSYQDEGWFTNKDIPAMRQFHKESGFDYNVVDFSKHHGRGTEKVFFIGKTPEDLVEVETYLRDKFGDVTTIVYSALACLEVMNKNVSKGDALKHLLESREYELKDCIAFGDGMNDVEMLSWAGKGCIMKDADIRLKMACPELEVIGSNKEESVARYLRTQFGLDYEGHHHHHH", "soluble on expression in E. coli": "soluble"}
{"sequence": "MSLNNKVIKKEVEEYLSRYFEGKDNYNKRVYESMNYSLNAGGKRVRPLLLLASYAIYNKDYKEVIDIAAAIEMIHTYSLIHDDLPCMDNDDLRRGRPTNHKIFGYSIALLAGDGLLNEAMNIMFKYCIGKGEEALKACLMISKAASSDGMIGGQVVDILSEGKKINEDELRYMHKKKTGELIKAAVVSGAILGGAPLHDVELLSQYGDKLGLAFQIEDDILDIIGDTKIMGKTSKSDLENDKCTYVTLYGIDKCKSICRELTDECLDIIGKIQGNTELLKEITELLLKRNREGHHHHHH", "soluble on expression in E. coli": "soluble"}
